{"source": "patent EP3821250B1", "key": {"[1]": {"molecular_target": "anti-A2M antibody (MAB) labeled with a donor fluorophore", "assay": "TR-FRET competition against acceptor-labeled A2M in whole blood, multiplex calibrators, 30 min; A2M 0 ug/mL, reference (FIG. 2I)"}, "[2]": {"molecular_target": "anti-A2M antibody (MAB) labeled with a donor fluorophore", "assay": "TR-FRET competition against acceptor-labeled A2M; A2M calibrator 200 ug/mL; mean of 4 replicates (FIG. 2G)"}, "[3]": {"molecular_target": "anti-A2M antibody (MAB) labeled with a donor fluorophore", "assay": "TR-FRET competition against acceptor-labeled A2M in whole blood, singleplex calibrators, 30 min; A2M 4000 ug/mL (FIG. 2I)"}, "[4]": {"molecular_target": "anti-A2M antibody (MAB) labeled with a donor fluorophore", "assay": "TR-FRET competition against acceptor-labeled A2M; A2M calibrator 1000 ug/mL; mean of 4 replicates (FIG. 2G)"}, "[5]": {"molecular_target": "anti-A2M antibody (MAB) labeled with a donor fluorophore", "assay": "TR-FRET competition against acceptor-labeled A2M in whole blood, multiplex calibrators (VCAM-1 + A2M), 30 min; A2M 1000 ug/mL (FIG. 2I)"}, "[6]": {"molecular_target": "anti-A2M antibody (MAB) labeled with a donor fluorophore", "assay": "TR-FRET competition against acceptor-labeled A2M in whole blood, singleplex calibrators, 5 min; A2M 500 ug/mL (FIG. 2I)"}, "[7]": {"molecular_target": "anti-A2M antibody (MAB) labeled with a donor fluorophore", "assay": "TR-FRET competition against acceptor-labeled A2M in whole blood, multiplex calibrators (VCAM-1 + A2M), 30 min; A2M 200 ug/mL (FIG. 2I)"}, "[8]": {"molecular_target": "anti-A2M antibody (MAB) labeled with a donor fluorophore", "assay": "TR-FRET competition against acceptor-labeled A2M in whole blood, multiplex calibrators, 5 min; A2M 0 ug/mL, reference (FIG. 2I)"}, "[9]": {"molecular_target": "anti-A2M antibody (MAB) labeled with a donor fluorophore", "assay": "TR-FRET competition against acceptor-labeled A2M; A2M calibrator 2000 ug/mL; mean of 4 replicates (FIG. 2G)"}, "[10]": {"molecular_target": "anti-A2M antibody (MAB) labeled with a donor fluorophore", "assay": "TR-FRET competition against acceptor-labeled A2M in whole blood, multiplex calibrators (VCAM-1 + A2M), 5 min; A2M 2000 ug/mL (FIG. 2I)"}, "[11]": {"molecular_target": "anti-A2M antibody (MAB) labeled with a donor fluorophore", "assay": "TR-FRET competition against acceptor-labeled A2M in whole blood, singleplex calibrators, 30 min; A2M 500 ug/mL (FIG. 2I)"}, "[12]": {"molecular_target": "anti-A2M antibody (MAB) labeled with a donor fluorophore", "assay": "TR-FRET competition against acceptor-labeled A2M in whole blood, multiplex calibrators (VCAM-1 + A2M), 5 min; A2M 1000 ug/mL (FIG. 2I)"}, "[13]": {"molecular_target": "anti-A2M antibody (MAB) labeled with a donor fluorophore", "assay": "TR-FRET competition against acceptor-labeled A2M in whole blood, singleplex calibrators, 5 min; A2M 0 ug/mL, reference (FIG. 2I)"}, "[14]": {"molecular_target": "anti-A2M antibody (MAB) labeled with a donor fluorophore", "assay": "TR-FRET competition against acceptor-labeled A2M in whole blood, singleplex calibrators, 5 min; A2M 1000 ug/mL (FIG. 2I)"}, "[15]": {"molecular_target": "anti-A2M antibody (MAB) labeled with a donor fluorophore", "assay": "TR-FRET competition against acceptor-labeled A2M; A2M calibrator 500 ug/mL; mean of 4 replicates (FIG. 2G)"}, "[16]": {"molecular_target": "anti-A2M antibody (MAB) labeled with a donor fluorophore", "assay": "TR-FRET competition against acceptor-labeled A2M in whole blood, singleplex calibrators, 30 min; A2M 0 ug/mL, reference (FIG. 2I)"}, "[17]": {"molecular_target": "anti-A2M antibody (MAB) labeled with a donor fluorophore", "assay": "TR-FRET competition against acceptor-labeled A2M in whole blood, multiplex calibrators (VCAM-1 + A2M), 30 min; A2M 500 ug/mL (FIG. 2I)"}, "[18]": {"molecular_target": "anti-A2M antibody (MAB) labeled with a donor fluorophore", "assay": "TR-FRET competition against acceptor-labeled A2M in whole blood, singleplex calibrators, 30 min; A2M 1000 ug/mL (FIG. 2I)"}, "[19]": {"molecular_target": "anti-A2M antibody (MAB) labeled with a donor fluorophore", "assay": "TR-FRET competition against acceptor-labeled A2M in whole blood, singleplex calibrators, 5 min; A2M 4000 ug/mL (FIG. 2I)"}, "[20]": {"molecular_target": "anti-A2M antibody (MAB) labeled with a donor fluorophore", "assay": "TR-FRET competition against acceptor-labeled A2M in whole blood, singleplex calibrators, 30 min; A2M 2000 ug/mL (FIG. 2I)"}, "[21]": {"molecular_target": "anti-A2M antibody (MAB) labeled with a donor fluorophore", "assay": "TR-FRET competition against acceptor-labeled A2M in whole blood, multiplex calibrators (VCAM-1 + A2M), 30 min; A2M 4000 ug/mL (FIG. 2I)"}, "[22]": {"molecular_target": "anti-A2M antibody (MAB) labeled with a donor fluorophore", "assay": "TR-FRET competition against acceptor-labeled A2M in whole blood, singleplex calibrators, 30 min; A2M 200 ug/mL (FIG. 2I)"}, "[23]": {"molecular_target": "anti-A2M antibody (MAB) labeled with a donor fluorophore", "assay": "TR-FRET competition against acceptor-labeled A2M in whole blood, multiplex calibrators (VCAM-1 + A2M), 5 min; A2M 500 ug/mL (FIG. 2I)"}, "[24]": {"molecular_target": "anti-A2M antibody (MAB) labeled with a donor fluorophore", "assay": "TR-FRET competition against acceptor-labeled A2M; A2M calibrator 0 ug/mL, reference; mean of 4 replicates (FIG. 2G)"}, "[25]": {"molecular_target": "anti-A2M antibody (MAB) labeled with a donor fluorophore", "assay": "TR-FRET competition against acceptor-labeled A2M; A2M calibrator 4000 ug/mL; mean of 4 replicates (FIG. 2G)"}, "[26]": {"molecular_target": "anti-A2M antibody (MAB) labeled with a donor fluorophore", "assay": "TR-FRET competition against acceptor-labeled A2M in whole blood, multiplex calibrators (VCAM-1 + A2M), 30 min; A2M 2000 ug/mL (FIG. 2I)"}, "[27]": {"molecular_target": "anti-A2M antibody (MAB) labeled with a donor fluorophore", "assay": "TR-FRET competition against acceptor-labeled A2M in whole blood, singleplex calibrators, 5 min; A2M 200 ug/mL (FIG. 2I)"}, "[28]": {"molecular_target": "anti-A2M antibody (MAB) labeled with a donor fluorophore", "assay": "TR-FRET competition against acceptor-labeled A2M in whole blood, singleplex calibrators, 5 min; A2M 2000 ug/mL (FIG. 2I)"}, "[29]": {"molecular_target": "anti-A2M antibody (MAB) labeled with a donor fluorophore", "assay": "TR-FRET competition against acceptor-labeled A2M in whole blood, multiplex calibrators (VCAM-1 + A2M), 5 min; A2M 200 ug/mL (FIG. 2I)"}, "[30]": {"molecular_target": "anti-A2M antibody (MAB) labeled with a donor fluorophore", "assay": "TR-FRET competition against acceptor-labeled A2M in whole blood, multiplex calibrators (VCAM-1 + A2M), 5 min; A2M 4000 ug/mL (FIG. 2I)"}}, "data": [{"substance": "A2M (alpha-2-macroglobulin), unlabeled analyte / calibrator", "values": [{"measurement": "FRET signal relative to zero calibrator (quantity not given)", "setting": "[1]", "result": 1}, {"measurement": "F/B Mean", "setting": "[2]", "result": 0.905}, {"measurement": "FRET signal relative to zero calibrator (quantity not given)", "setting": "[3]", "result": 0.33}, {"measurement": "F/B Mean", "setting": "[4]", "result": 0.666}, {"measurement": "FRET signal relative to zero calibrator (quantity not given)", "setting": "[5]", "result": 0.56}, {"measurement": "FRET signal relative to zero calibrator (quantity not given)", "setting": "[6]", "result": 0.72}, {"measurement": "FRET signal relative to zero calibrator (quantity not given)", "setting": "[7]", "result": 0.87}, {"measurement": "FRET signal relative to zero calibrator (quantity not given)", "setting": "[8]", "result": 1}, {"measurement": "F/B Mean", "setting": "[9]", "result": 0.532}, {"measurement": "FRET signal relative to zero calibrator (quantity not given)", "setting": "[10]", "result": 0.45}, {"measurement": "FRET signal relative to zero calibrator (quantity not given)", "setting": "[11]", "result": 0.71}, {"measurement": "FRET signal relative to zero calibrator (quantity not given)", "setting": "[12]", "result": 0.58}, {"measurement": "FRET signal relative to zero calibrator (quantity not given)", "setting": "[13]", "result": 1}, {"measurement": "FRET signal relative to zero calibrator (quantity not given)", "setting": "[14]", "result": 0.58}, {"measurement": "F/B Mean", "setting": "[15]", "result": 0.795}, {"measurement": "FRET signal relative to zero calibrator (quantity not given)", "setting": "[16]", "result": 1}, {"measurement": "FRET signal relative to zero calibrator (quantity not given)", "setting": "[17]", "result": 0.74}, {"measurement": "FRET signal relative to zero calibrator (quantity not given)", "setting": "[18]", "result": 0.59}, {"measurement": "FRET signal relative to zero calibrator (quantity not given)", "setting": "[19]", "result": 0.33}, {"measurement": "FRET signal relative to zero calibrator (quantity not given)", "setting": "[20]", "result": 0.43}, {"measurement": "FRET signal relative to zero calibrator (quantity not given)", "setting": "[21]", "result": 0.33}, {"measurement": "FRET signal relative to zero calibrator (quantity not given)", "setting": "[22]", "result": 0.88}, {"measurement": "FRET signal relative to zero calibrator (quantity not given)", "setting": "[23]", "result": 0.71}, {"measurement": "F/B Mean", "setting": "[24]", "result": 1}, {"measurement": "F/B Mean", "setting": "[25]", "result": 0.393}, {"measurement": "FRET signal relative to zero calibrator (quantity not given)", "setting": "[26]", "result": 0.45}, {"measurement": "FRET signal relative to zero calibrator (quantity not given)", "setting": "[27]", "result": 0.88}, {"measurement": "FRET signal relative to zero calibrator (quantity not given)", "setting": "[28]", "result": 0.43}, {"measurement": "FRET signal relative to zero calibrator (quantity not given)", "setting": "[29]", "result": 0.83}, {"measurement": "FRET signal relative to zero calibrator (quantity not given)", "setting": "[30]", "result": 0.34}]}]}
